Reference: patent US11485769B2, “Peptides and combination of peptides for use in immunotherapy and methods for generating scaffolds for the use against pancreatic cancer and other cancers” (Immatics Biotechnologies GmbH, priority 2015, dated 2022)

The substances below were run against HLA-A*02:01 (Homo sapiens, UniProt P04439, D140Y/D185E/D98H/E176V/E277Q/G131W/G231S/I119V/I121R/I166T/I218V/L300P/L318F/N151K/N90K/P208A/P217A/Q86G/Q94H/R138H/R169H/T345S) (assay: MHC binding assay (UV-ligand exchange, beta2m ELISA, peptide exchange yield)). Conditions: binding to HLA-A*02:01 ranged by peptide exchange yield, β2m ELISA.
Source text: Candidate peptides for T cell based therapies according to the present invention were further tested for their MHC binding capacity (affinity). The individual peptide-MHC complexes were produced by UV-ligand exchange, where a UV-sensitive peptide is cleaved upon UV-irradiation, and exchanged with the peptide of interest as analyzed. Only peptide candidates that can effectively bind and stabilize the peptide-receptive MHC molecules prevent dissociation of the MHC complexes. To determine the yield of the exchange reaction, an ELISA was performed based on the detection of the light chain (β2m) of stabilized MHC complexes. The assay was performed as generally described in Rodenko et al. (Rodenko et al., 2006).
96 well MAXISorp plates (NUNC) were coated over night with 2 ug/ml streptavidin in PBS at room temperature, washed 4× and blocked for 1 h at 37° C. in 2% BSA containing blocking buffer. Refolded HLA-A*02:01/MLA-001 monomers served as standards, covering the range of 15-500 ng/ml. Peptide-MHC monomers of the UV-exchange reaction were diluted 100 fold in blocking buffer. Samples were incubated for 1 h at 37° C., washed four times, incubated with 2 ug/ml HRP conjugated anti-μ2m for 1h at 37° C., washed again and detected with TMB solution that is stopped with […]. Absorption was measured at 450 nm. Candidate peptides that show a high exchange yield (preferably higher than 50%, most preferred higher than 75%) are generally preferred for a generation and production of antibodies or fragments thereof, and/or T cell receptors or fragments thereof, as they show sufficient avidity to the MHC molecules and prevent dissociation of the MHC complexes.
MHC class I binding scores. Binding of HLA-class I restricted peptides to HLA-A*02:01 was ranged by peptide exchange yield: ≥10%=+; ≥20%=++; ≥50=+++; >75%=++++

Substance	Peptide exchange (MHC class I binding score)
71 (VLLPEGGITAI; listed as Homo sapiens) [compound 71]	“+++” (≥50=+++)
72 (VMASPGGLSAV; listed as Homo sapiens) [compound 72]	“+++” (≥50=+++)
73 (VMVDGKPVNL; listed as Homo sapiens) [compound 73]	“++++” (>75%=++++)
77 (RLFPGSSFL; listed as Homo sapiens) [compound 77]	“++++” (>75%=++++)
78 (SLQDTEEKSRS; listed as Homo sapiens) [compound 78]	“+++” (≥50=+++)
79 (VVYEGQLISI; listed as Homo sapiens) [compound 79]	“+++” (≥50=+++)
81 (VVYDDSTGLIRL; listed as Homo sapiens) [compound 81]	“+++” (≥50=+++)
85 (FLSDGTIISV; listed as Homo sapiens) [compound 85]	“++++” (>75%=++++)
87 (GLLPALVAL; listed as Homo sapiens) [compound 87]	“+++” (≥50=+++)
88 (IIDDTIFNL; listed as Homo sapiens) [compound 88]	“+++” (≥50=+++)
90 (KLLTPITTL; listed as Homo sapiens) [compound 90]	“+++” (≥50=+++)
92 (YLTNEGIAHL; listed as Homo sapiens) [compound 92]	“++++” (>75%=++++)
97 (ALDDMISTL; listed as Homo sapiens) [compound 97]	“+++” (≥50=+++)
99 (ALESFLKQV; listed as Homo sapiens) [compound 99]	“+++” (≥50=+++)
100 (ALFGAGPASI; listed as Homo sapiens) [compound 100]	“+++” (≥50=+++)
101 (ALVEENGIFEL; listed as Homo sapiens) [compound 101]	“+++” (≥50=+++)

Substance	Peptide exchange (MHC class I binding score)
103 (AVAAVLTQV; listed as Homo sapiens) [compound 103]	“+++” (≥50=+++)
105 (FLSEVFHQA; listed as Homo sapiens) [compound 105]	“+++” (≥50=+++)
106 (FVWSGTAEA; listed as Homo sapiens) [compound 106]	“+++” (≥50=+++)
107 (FVYGGPQVQL; listed as Homo sapiens) [compound 107]	“+++” (≥50=+++)
109 (ILASVILNV; listed as Homo sapiens) [compound 109]	“++++” (>75%=++++)
110 (ILLTGTPAL; listed as Homo sapiens) [compound 110]	“+++” (≥50=+++)
112 (LLSDVRFVL; listed as Homo sapiens) [compound 112]	“+++” (≥50=+++)
114 (SLFPHNPQFI; listed as Homo sapiens) [compound 114]	“+++” (≥50=+++)
123 (KISTITPQI; listed as Homo sapiens) [compound 123]	“++” (≥20%=++)
124 (ALFEESGLIRI; listed as Homo sapiens) [compound 124]	“+++” (≥50=+++)
125 (ALLGKLDAINV; listed as Homo sapiens) [compound 125]	“+++” (≥50=+++)
126 (ALLSLDPAAV; listed as Homo sapiens) [compound 126]	“++++” (>75%=++++)
134 (ILLAEGRLVNL; listed as Homo sapiens) [compound 134]	“+++” (≥50=+++)
135 (KLDDTYIKA; listed as Homo sapiens) [compound 135]	“+++” (≥50=+++)
136 (KLFPGFEIETV; listed as Homo sapiens) [compound 136]	“++++” (>75%=++++)

Now from value to substance:

Peptide exchange (MHC class I binding score)	Substance
“++++” (>75%=++++)	70 (VLGVIWGV; listed as Homo sapiens) [compound 70]
“+++” (≥50=+++)	74 (YIDKDLEYV; listed as Homo sapiens) [compound 74]
“+++” (≥50=+++)	80 (LLPGTEYVVSV; listed as Homo sapiens) [compound 80]
“+++” (≥50=+++)	82 (ALIAEGIAL; listed as Homo sapiens) [compound 82]
“+++” (≥50=+++)	83 (ALSKEIYVI; listed as Homo sapiens) [compound 83]
“++++” (>75%=++++)	84 (FILPIGATV; listed as Homo sapiens) [compound 84]
“++++” (>75%=++++)	86 (GLGDFIFYSV; listed as Homo sapiens) [compound 86]
“+++” (≥50=+++)	89 (KLADIQIEQL; listed as Homo sapiens) [compound 89]
“+++” (≥50=+++)	91 (LLFNDVQTL; listed as Homo sapiens) [compound 91]
“+++” (≥50=+++)	93 (SIDSEPALV; listed as Homo sapiens) [compound 93]
“+++” (≥50=+++)	94 (VMMEEFVQL; listed as Homo sapiens) [compound 94]
“+++” (≥50=+++)	95 (ALADDDFLTV; listed as Homo sapiens) [compound 95]
“+++” (≥50=+++)	96 (ALAPATGGGSLLL; listed as Homo sapiens) [compound 96]
“++” (≥20%=++)	98 (ALDQKVRSV; listed as Homo sapiens) [compound 98]
“+++” (≥50=+++)	102 (ALYPGTDYTV; listed as Homo sapiens) [compound 102]
“+++” (≥50=+++)	104 (FLQPDLDSL; listed as Homo sapiens) [compound 104]
“+++” (≥50=+++)	111 (LLLAAARLAAA; listed as Homo sapiens) [compound 111]

Peptide exchange (MHC class I binding score)	Substance
“+++” (≥50=+++)	113 (LMMSEDRISL; listed as Homo sapiens) [compound 113]
“+++” (≥50=+++)	115 (SLMDPNKFLLL; listed as Homo sapiens) [compound 115]
“++++” (>75%=++++)	116 (SMMDPNHFL; listed as Homo sapiens) [compound 116]
“+++” (≥50=+++)	117 (SVDGVIKEV; listed as Homo sapiens) [compound 117]
“+++” (≥50=+++)	118 (TLWYRPPEL; listed as Homo sapiens) [compound 118]
“+++” (≥50=+++)	119 (VLGDDPQLMKV; listed as Homo sapiens) [compound 119]
“++” (≥20%=++)	121 (YLDEDTIYHL; listed as Homo sapiens) [compound 121]
“++++” (>75%=++++)	122 (MQAPRAALVFA; listed as Homo sapiens) [compound 122]
“++++” (>75%=++++)	127 (ALSDLALHFL; listed as Homo sapiens) [compound 127]
“+++” (≥50=+++)	128 (ALYDVRTILL; listed as Homo sapiens) [compound 128]
“+++” (≥50=+++)	129 (ALYEKDNTYL; listed as Homo sapiens) [compound 129]
“+++” (≥50=+++)	130 (FLFGEEPSKL; listed as Homo sapiens) [compound 130]
“+++” (≥50=+++)	131 (FLIEEQKIVV; listed as Homo sapiens) [compound 131]
“+++” (≥50=+++)	132 (FLWAGGRASYGV; listed as Homo sapiens) [compound 132]
“++” (≥20%=++)	133 (ILDDVSLTHL; listed as Homo sapiens) [compound 133]
“+++” (≥50=+++)	137 (KLGPEGELL; listed as Homo sapiens) [compound 137]
“+++” (≥50=+++)	138 (NIFPNPEATFV; listed as Homo sapiens) [compound 138]
